These results are taken from paper PMC6828814, “A cryptic hydrophobic pocket in the polo-box domain of the polo-like kinase PLK1 regulates substrate recognition and mitotic chromosome segregation” (Scientific Reports, 2019).

Test [1] concerns the target T1, PLK1 (polo-like kinase 1) polo-box domain (Homo sapiens, UniProt P53350).
T1 construct: polo-box domain (PBD), recombinant
In words: crystal structure (soaking) and competitive fluorescence polarisation with TAMRA-labelled PBIP1 phosphopeptide. The format is binding. Background: In fluorescence polarisation assays a small probe gives low polarisation when free and higher when bound to something large.

The target of test [2] is PLK1 (UniProt P53350). In words: GFP-Trap co-IP, anti-NEDD1 immunoblot. The settings on record: reference: GFP-PLK1Wt. A general note: Immunoblotting shows a protein as a band on a membrane.
Test [3] addresses PLK1 (UniProt P53350). In words: V5 co-IP, immunoblot. The settings on record: reference: PBIP1Wt-V5; sites T78.

T1 sequence (P53350 367-603 limits assumed): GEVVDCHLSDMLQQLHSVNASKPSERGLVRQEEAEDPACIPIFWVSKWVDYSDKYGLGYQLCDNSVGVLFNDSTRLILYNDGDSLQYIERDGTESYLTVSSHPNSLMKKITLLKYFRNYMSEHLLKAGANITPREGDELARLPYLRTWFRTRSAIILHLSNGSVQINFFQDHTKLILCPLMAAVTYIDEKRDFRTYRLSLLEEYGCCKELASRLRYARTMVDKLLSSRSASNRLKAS

As usually defined, the IC50 is the concentration that gives 50% inhibition. High values mean weaker potency in that assay, low ones greater potency in that assay. `O=C(Nc1cccc(C(C(=O)O)C(=O)O)c1)c1ccc(C(=O)c2cccc(I)c2)s1` [Polotyrin]: the IC50 in test [1] is 115 ± 24 µM.
For the compound “NEDD1 (from UniProt Q8NHV4) GFP-PLK1AM (H538A/K540M)”, the “other: IP band intensity normalised to input” value in the test with PLK1 [2] is given as “lost; reference 0.2”.
With “PBIP1 (Polo-Box Interacting Protein 1) (from UniProt Q71F23) PBIP1-T78A-V5”, the “other: IP band intensity normalised to input” value in the test with PLK1 [3] is recorded as “weaker; reference 2.5”.
